{"source": "paper PMC4366279", "about": "(PLoS ONE, 2015)", "key": {"[1]": {"target": "T1, T. brucei RNA Editing Ligase 1 (TbREL1), full length wild type (Trypanosoma brucei, UniProt P86926 45-469, [35S]-methionine labelled)", "T1 sequence": "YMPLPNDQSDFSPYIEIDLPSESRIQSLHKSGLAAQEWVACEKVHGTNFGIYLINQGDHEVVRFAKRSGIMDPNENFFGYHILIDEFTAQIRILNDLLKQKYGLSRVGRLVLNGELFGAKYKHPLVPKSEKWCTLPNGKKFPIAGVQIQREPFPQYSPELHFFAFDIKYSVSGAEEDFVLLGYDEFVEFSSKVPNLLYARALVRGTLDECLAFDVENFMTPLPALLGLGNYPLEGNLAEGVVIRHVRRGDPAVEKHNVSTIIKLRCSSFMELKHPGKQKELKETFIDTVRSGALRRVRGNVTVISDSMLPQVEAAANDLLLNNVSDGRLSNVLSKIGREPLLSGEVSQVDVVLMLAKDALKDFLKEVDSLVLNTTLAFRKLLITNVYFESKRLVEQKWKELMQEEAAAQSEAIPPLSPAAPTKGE", "test": "cell-based or functional assay"}, "[2]": {"target": "T2, TbREL1 F206A (Trypanosoma brucei, UniProt P86926 45-469, F206A, [35S]-methionine labelled)", "T2 construct": "Site-directed mutagenesis of TbREL1-pET30a; source: in vitro translated (TNT reticulocyte lysate coupled transcription and translation system, Promega); not shown: His6, N-terminal, kept", "T2 sequence": "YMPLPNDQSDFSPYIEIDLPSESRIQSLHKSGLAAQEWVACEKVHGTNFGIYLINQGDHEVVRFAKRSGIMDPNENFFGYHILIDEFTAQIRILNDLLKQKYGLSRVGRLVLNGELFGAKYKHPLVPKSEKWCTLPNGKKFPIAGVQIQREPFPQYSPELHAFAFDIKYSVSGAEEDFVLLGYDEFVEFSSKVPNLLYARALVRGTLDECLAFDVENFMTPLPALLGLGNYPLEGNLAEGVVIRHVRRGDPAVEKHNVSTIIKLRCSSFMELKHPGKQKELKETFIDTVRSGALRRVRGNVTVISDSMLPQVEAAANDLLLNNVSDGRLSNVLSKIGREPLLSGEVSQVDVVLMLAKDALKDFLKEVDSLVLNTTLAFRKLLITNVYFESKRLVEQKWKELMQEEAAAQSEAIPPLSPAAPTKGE", "test": "pull-down; His6-TbREL1 TNT mixture mixed with an equal volume of untagged KREPA2 TNT mixture, captured on magnetic His-tag isolation beads (Dynabeads); binding buffer 50 mM NaPO4 pH 8.0, 300 mM NaCl, 0.01% Tween 20; 20-30 min at 4°C; three washes; [35S]-methionine-labelled proteins on 10% SDS-PAGE, PhosphorImager; KREPA2-only control for background", "conditions": "partners not purified"}, "[3]": {"target": "T3, TbREL1 K441A (Trypanosoma brucei, UniProt P86926 45-469, K441A, [35S]-methionine labelled)", "T3 construct": "Site-directed mutagenesis of TbREL1-pET30a; source: in vitro translated (TNT reticulocyte lysate coupled transcription and translation system, Promega); not shown: His6, N-terminal, kept", "T3 sequence": "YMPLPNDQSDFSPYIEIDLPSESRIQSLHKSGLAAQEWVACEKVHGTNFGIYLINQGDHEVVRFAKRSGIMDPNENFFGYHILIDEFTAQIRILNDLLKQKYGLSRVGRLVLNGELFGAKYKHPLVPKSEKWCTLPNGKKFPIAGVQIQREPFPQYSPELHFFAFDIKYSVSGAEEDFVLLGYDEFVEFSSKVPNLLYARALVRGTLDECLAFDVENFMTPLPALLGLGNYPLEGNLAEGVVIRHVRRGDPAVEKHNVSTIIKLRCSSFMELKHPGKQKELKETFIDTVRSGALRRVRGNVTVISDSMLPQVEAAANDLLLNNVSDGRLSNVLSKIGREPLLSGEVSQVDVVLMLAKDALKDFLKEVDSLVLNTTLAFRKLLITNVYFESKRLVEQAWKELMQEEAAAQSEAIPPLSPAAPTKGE", "test": "pull-down; His6-TbREL1 TNT mixture mixed with an equal volume of untagged KREPA2 TNT mixture, captured on magnetic His-tag isolation beads (Dynabeads); binding buffer 50 mM NaPO4 pH 8.0, 300 mM NaCl, 0.01% Tween 20; 20-30 min at 4°C; three washes; [35S]-methionine-labelled proteins on 10% SDS-PAGE, PhosphorImager; KREPA2-only control for background", "conditions": "partners not purified"}, "[4]": {"target": "T4, TbREL1 E444A (Trypanosoma brucei, UniProt P86926 45-469, E444A, [35S]-methionine labelled)", "T4 construct": "Site-directed mutagenesis of TbREL1-pET30a; source: in vitro translated (TNT reticulocyte lysate coupled transcription and translation system, Promega); not shown: His6, N-terminal, kept", "T4 sequence": "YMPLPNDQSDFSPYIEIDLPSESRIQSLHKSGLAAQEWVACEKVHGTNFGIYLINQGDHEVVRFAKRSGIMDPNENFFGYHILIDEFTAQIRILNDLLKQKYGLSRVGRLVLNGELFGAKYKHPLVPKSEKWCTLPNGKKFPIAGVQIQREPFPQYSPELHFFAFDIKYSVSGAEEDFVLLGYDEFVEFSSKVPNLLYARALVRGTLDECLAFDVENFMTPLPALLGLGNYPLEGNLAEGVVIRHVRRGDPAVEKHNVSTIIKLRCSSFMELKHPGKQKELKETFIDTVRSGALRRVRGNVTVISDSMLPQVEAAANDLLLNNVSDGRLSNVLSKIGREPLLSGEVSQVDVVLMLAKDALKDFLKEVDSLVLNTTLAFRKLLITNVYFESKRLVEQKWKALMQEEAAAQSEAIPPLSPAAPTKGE", "test": "pull-down; His6-TbREL1 TNT mixture mixed with an equal volume of untagged KREPA2 TNT mixture, captured on magnetic His-tag isolation beads (Dynabeads); binding buffer 50 mM NaPO4 pH 8.0, 300 mM NaCl, 0.01% Tween 20; 20-30 min at 4°C; three washes; [35S]-methionine-labelled proteins on 10% SDS-PAGE, PhosphorImager; KREPA2-only control for background", "conditions": "partners not purified"}}}
{"binder": "KREPA2 (natural protein, [35S]-methionine labelled, KREPA2 of T. brucei, the KREPA2 open reading frame, expressed untagged (63 kDa); source: in vitro translated (TNT reticulocyte lysate coupled transcription and translation system, Promega)) MYRRFFRSAAVKHLGTTSAQCLMRATKYPCGAMCRNASSCHPQTLGYQQRFQSTTDKKFHCSVCKKPFRLEMAAKLHLQQAHGGDGSVEAGPGPGVEASSVNVVSTPVPSPISPVERTFVDEEERRPRRMRPTPKPLHQPDRDIPAAAMEEMLGVWDKIGLNRLEGNFVHSTMVMKVFAAPPDVSEIPLYEHVAPEGENPFDSLDHMTTGTVDATYVGHDAFAEVDLVDPFVAAPDQTLNPFRAGKVRNPFTRISPTQREVVKPLQPPQPKEEPLKAPVTPFGQLPMFGQTREPSASFAAAAVSVQAAANPNEVSSPFAAAVSSSPFVGQVASPFAPAQDVAGSPFEASPCAASSPFVTAGGQETSPFAAPSTPASFGQGSLFPPMGTGAPGFTAITETEQRQQELEHGCPTCGKKFSTFEGAAMHSKSKHGIVLESKKVKDRLNRKGVPDLPAYVPSPVDLSSTSPFGTRSAIGASWAETELIPHAQCVSNITIVGRVLDVSQASENVSHVTVFVEGERSGEEETLTLCCFGEVSQKIRGTLKRNATIFASGTLRLHPVYEASNNKYYVSPVVHVSMPTGTLAVIT", "values": [{"measurement": "adenylylation activity of TbREL1, enhancement in the presence of equimolar KREPA2", "setting": "[1]", "value": 6.7, "unit": "fold"}, {"measurement": "ligation activity of TbREL1 (pre-cleaved RNA ligation assay), enhancement in the presence of equimolar KREPA2", "setting": "[1]", "value": 3.6, "unit": "fold"}, {"measurement": "relative pulldown (% of the KREPA2 pulled down by TbREL1 WT)", "setting": "[2]", "value": "< 50", "unit": "%"}, {"measurement": "relative pulldown (% of the KREPA2 pulled down by TbREL1 WT)", "setting": "[3]", "value": "< 50", "unit": "%"}, {"measurement": "relative pulldown (% of the KREPA2 pulled down by TbREL1 WT)", "setting": "[4]", "value": "< 50", "unit": "%"}]}
